# T1: cynomolgus macaque (Macaca fascicularis) CD39 (Macaca fascicularis, UniProt P49961 7-510 (human entry))
# T1 construct: On engineered CHO cells and on primary cyno B cells and monocytes; also called cyno CD39; cCD39
# T1 chain: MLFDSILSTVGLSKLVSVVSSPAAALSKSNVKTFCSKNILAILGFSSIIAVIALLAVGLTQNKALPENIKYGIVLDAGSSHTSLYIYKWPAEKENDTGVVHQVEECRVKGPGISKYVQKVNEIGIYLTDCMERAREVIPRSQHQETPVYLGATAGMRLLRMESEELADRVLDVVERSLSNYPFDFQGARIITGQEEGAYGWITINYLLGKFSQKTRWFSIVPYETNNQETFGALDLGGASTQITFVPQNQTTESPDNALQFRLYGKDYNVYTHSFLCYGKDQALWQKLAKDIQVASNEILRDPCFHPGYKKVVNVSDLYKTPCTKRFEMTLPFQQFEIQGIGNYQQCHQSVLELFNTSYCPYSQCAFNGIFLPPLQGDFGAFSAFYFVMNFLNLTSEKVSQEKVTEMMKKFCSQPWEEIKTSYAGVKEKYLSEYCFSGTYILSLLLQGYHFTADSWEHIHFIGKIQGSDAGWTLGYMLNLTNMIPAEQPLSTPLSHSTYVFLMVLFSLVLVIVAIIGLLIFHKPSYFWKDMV
# T2: human CD39 (cellular) (human, UniProt P49961 1-510)
# T2 construct: Same protein on engineered CHO cells and on cells that express it endogenously; also called hCD39; cellular CD39
# T2 sequence: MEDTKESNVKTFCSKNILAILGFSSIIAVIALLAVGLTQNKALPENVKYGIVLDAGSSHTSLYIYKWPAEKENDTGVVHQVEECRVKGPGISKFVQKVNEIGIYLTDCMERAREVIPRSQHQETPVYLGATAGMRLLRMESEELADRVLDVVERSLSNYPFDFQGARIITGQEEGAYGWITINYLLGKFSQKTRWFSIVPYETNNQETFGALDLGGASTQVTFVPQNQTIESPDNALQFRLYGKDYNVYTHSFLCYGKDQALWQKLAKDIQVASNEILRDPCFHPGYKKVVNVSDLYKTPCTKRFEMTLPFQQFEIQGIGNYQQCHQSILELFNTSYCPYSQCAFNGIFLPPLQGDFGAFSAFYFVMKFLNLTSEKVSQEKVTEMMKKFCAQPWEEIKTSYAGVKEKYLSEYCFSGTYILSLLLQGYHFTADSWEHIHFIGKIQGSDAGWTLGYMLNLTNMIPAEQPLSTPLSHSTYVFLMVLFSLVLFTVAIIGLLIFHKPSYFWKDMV
# Experiments:
# [1] = molecular target: T1, cynomolgus macaque (Macaca …); experiment: flow cytometry, 100 nM IgG, MFI on CHO-cCD39 / MFI on parental CHO;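 note: antibodies bound to the cells for 30 min in PBS, then bound IgG was revealed with a fluorescent goat anti-human IgG secondary antibody, 20 min on ice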
# Protocol: (§1) 100 nanomolar IgGs (each antibody is indicated as a unique clone number in the FIG.) were incubated at 25° C. for 30 minutes on ice in phosphate buffered saline (PBS) with parental CHO cells or CHO cells engineered to express either human or cynomolgus macaque (Macaca fascicularis) CD39 (CHO CD39 cells). Cells were then washed with ice cold PBS and incubated with a fluorescently labeled goat-anti-human IgG for 20 minutes on ice. Cells were washed and resuspended in ice cold PBS prior to analysis by flow cytometry.
# human CD39 (cellular) = molecular target: T2, human CD39 (cellular); experiment: flow cytometry, 100 nM IgG, MFI on CHO-hCD39 / MFI on parental CHO;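 note: cells exposed to IgG for 30 min on ice in PBS, bound antibody then revealed with a fluorescent goat anti-human IgG secondary (20 min, on ice)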
# Protocol: as §1
Binder,Cell Binding (FOB) [1] [fold over background],Cell Binding (FOB) (human CD39 (cellular)) [fold over background]
"27589 (antibody, human IgG4 S228P, kappa, V domains shown) VH: QVQLVQSGAEVKKPGSSVKVSCKASGGTFSSYAISWVRQAPGQGLEWMGGIIPIFGTANYAQKFQGRVTITADESTSTAYMELSSLRSEDTAVYYCARDSGYHRHYSDYWGQGTLVTVSS VL: DIQMTQSPSTLSASVGDRVTITCRASQSISSWLAWYQQKPGKAPKLLIYKASSLESGVPSRFSGSGSGTEFTLTISSLQPDDFATYYCQQYGLFPITFGGGTKVEIKR",531,311
"27550 (antibody, human IgG4 S228P, kappa, V domains shown) VH: EVQLVESGGGLVKPGGSLRLSCAASGFTFSSYSMNWVRQAPGKGLEWVSSISSSSSYIYYADSVKGRFTISRDNAKNSLYLQMNSLRAEDTAVYYCARERRGSLALGMDVWGQGTLVTVSS VL: not shown",2870,2030
"27549 (antibody, human IgG4 S228P, kappa, V domains shown) VH: QVQLVESGGGVVQPGRSLRLSCAASGFTFSSYGMNWVRQAPGKGLEWVAVIWYDGSNKYYADSVKGRFTISRDNSKNTLYLQMNSLRAEDTAVYYCARDLGGYSYGEPYYYYYGMDVWGQGTTVTVSS VL: EIVLTQSPGTLSLSPGERATLSCRASQSVSSDYLAWYQQKPGQAPRLLIYGASSRATGIPDRFSGSGSGTDFTLTISRLEPEDFAVYYCQQAHSSPYTFGGGTKVEIKR",566,822
"27571 (antibody, V domains shown) VH: QVQLVQSGAEVKKPGSSVKASCKASGGTFSSYAISWVRQAPGQGLEWMGSIIPIFGTANYAQKFRGRVTITADESTSTTYMELSSLRSEDTAVYYCARESGGYRDHRLDVWGQGTMVTVSS VL: EIVMTQSPATLSVSPGERATLSCRASQSVGSNLAWYQQKPGQAPRLLIYGASTRATGIPARFSGSGSGTEFTLTISSLQSEDFAVYYCQQYLIWPLTFGGGTKVEIK",1610,1400
"27588 (antibody, V domains shown) VH: QVQLVQSGAEVKKPGSSVKVSCKASGGTFSNYAISWVRQAPGQGLEWMGGIIPIFGTANYAQKFQGRVTITADESTSTAYMELSSLRSEDTAVYYCARAKRGYDSYGGVYFDYWGQGTLVTVSS VL: not shown",14,10
"27590 (antibody, V domains shown) VH: QVQLVQSGAEVKKPGSSVKVSCKASGGTFSNYAISWVRQAPGQGLEWMGGIIPIFGTANYAQKFQGRVTITADESTSTAYMELSSLRSEDTAVYYCARGPTVTATTSIGTHNWFDPWGQGTLVTVSS VL: EIVLTQSPATLSLSPGERATLSCRASQSVSSYLAWYQQKPGQAPRLLIYDASNRATGIPARFSGSGSGTDFTLTISSLEPEDFAVYYCQQRNFYPPTFGGGTKVEIK",44,33
"27535 (antibody, human IgG4 S228P, kappa, V domains shown) VH: QVQLVQSGAEVKKPGSSVKVSCKASGGTFSSYAISWVRQAPGQGLEWMGGIIPIFGTANYAQKFQGRVTITADESTSTAYMELSSLRSEDTAVYYCARDTPRWRYHYFDYWGQGTLVTVSS VL: EIVLTQSPATLSLSPGERATLSCRASQSVSSYLAWYQQKPGQAPRLLIYDASKRATGIPARFSGSGSGTDFTLTISSLEPEDFAVYYCQQVLNYPLTFGGGTKVEIKR",738,301
"27568 (antibody, human IgG4 S228P, kappa, V domains shown) VH: QVQLVQSGAEVKKPGSSVKVPCKASGGTFSSYAISWVRQAPEQGLEWMGSIIPIFGTANYAQKFQGRVTITADESTSTAYMELSSLRSEDTAVYYCAGESGGYRDHKLDVWGQGTVVTVSS VL: EIVLTQSPATLSLSPGERATLSCRASQSVSSYLAWYQQKPGQAPRLLIYDASNRATGIPARFSGSGSGTDFTLTISSLEPEDFAVYYCQQSVFWPITFGGGTKVEIKR",260,267
"27596 (antibody, human IgG4 S228P, kappa, V domains shown) VH: QVQLVQSGAEVKKPGSSVKVSCKASGGTFSSYAISWVRQAPGQGLEWMGGIIPIFGTANYAQKFQGRVTITADESTSTAYMELSSLRSEDTAVYYCARDPLGIRKHWFDPWGQGTLVTVSS VL: EIVMTQSPATLSLSPGERATLSCRASQSVSSYLAWYQQKPGQAPRLLIYDASNRATGIPARFSGSGSGTDFTLTISSLEPEDFAVYYCQQHTVWPITFGGGTKVEIKR",257,252
"27587 (antibody, human IgG4 S228P, kappa, V domains shown) VH: QVQLVQSGAEVKKPGSSVKVSCKASGGTFSSYAISWVRQAPGQGLEWMGSIIPIFGTANYAQKFQGRVTITADESTSTAYMELSSLRSEDTAVYYCARESGGYRDHKLDVWGQGTMVTVSS VL: EIVLTQSPATLSLSPGERATLSCRASQSVSSYLAWYQQKPGQAPRLLIYDASKRATGIPARFSGSGSGTDFTLTISSLEPEDFAVYYCQQDVLWPLTFGGGTKVEIKR",1400,1450
"27577 (antibody, human IgG4 S228P, kappa, V domains shown) VH: QVQLVQSGAEVKKPGSSVKVSCKASGGAFSSYAIGWVRQAPGQGLEWMGGIIPTFGTANYAQKFQGRVTITADESTSTAYMELSSLRSEDTAVYYCARDGGGYQHHYFDLWGRGTLVTVSS VL: EIVMTQSPATLSVSPGERATLSCRASQSVGSNLAWYQQKPGQAPRLLIYGASTRATGIPARFSGSGSGTEFTLTISSLQSEDFAVYYCQQLTKWPLTFGGGTKVEIKR",339,390
"27579 (antibody, V domains shown) VH: QVQLVQSGAEVKEPGASVKVSCKAPGYTFTSYYMHWVRQAPGQGLEWMGVINPSGGSTSYAQKFQGRVTMTRDTSTSTVYMELSSLRSEDTAVYYCARGKREGGTEYLRHWGQGTLVTVSS VL: EIVLTQSPGTLSLSPGERATLSCRASQSVSSSYLAWYQQKPGQAPRLLIYGASSRATGIPDRFSGSGSGTDFTLTISRLEPEDFAVYYCQQYHSYITFGGGTKVEIK",2670,1950
"29872 (antibody, V domains shown, also called anti-CD39 antibody 29872) VH: QVQLVQSGAEVKKPGASVKVSCKASGYTFKSYEMHWVRQAPGQGLEWMGRINPSVGSTWYAQKFQGRVTMTRDTSTSTVYMELSSLRSEDTAVYYCARGKREGGTEYLRHWGQGTLVTVSS VL: EIVLTQSPGTLSLSPGERATLSCRASQSVSSSYLAWYQQKPGQAPRLLIYGASSRATGIPDRFSGSGSGTDFTLTISRLEPEDFAVYYCQQYHSYITFGGGTKVEIK",4190,1450
"31431 (antibody, V domains shown) VH: QVQLVQSGAEVKKPGASVKVSCKASGYTFTSYQMHWVRQAPGQGLEWMGRINPSGGSTWYAQKFQGRVTMTRDTSTSTVYMELSSLRSEDTAVYYCARGKREGGTEYLRHWGQGTLVTVSS VL: EIVLTQSPGTLSLSPGERATLSCRASQSVASSYLAWYQQKPGQAPRLLIYGASNRHTGIPDRFSGSGSGTDFTLTISRLEPEDFAVYYCQQYHGGITFGGGTKVEIK",3530,1240
"31421 (antibody, V domains shown) VH: QVQLVQSGAEVKKPGASVKVSCKASGYTFFSYYMYWVRQAPGQGLEWMGVINPLGGGTSYAQKFQGRVTMTRDTSTSTVYMELSSLRSEDTAVYYCARGKREGGTEYLRHWGQGTLVTVSS VL: EIVLTQSPGTLSLSPGERATLSCKASESVSSSYLAWYQQKPGQAPRLLIYYASSRATGIPDRFSGSGSGTDFTLTISRLEPEDFAVYYCQQYHRRITFGGGTKVEIK",3050,1080
"31429 (antibody, V domains shown) VH: QVQLVQSGAEVKKPGASVKVSCKASGYTFVSYFMHWVRQAPGQGLEWMGSINPRGGSTSYAQKFQGRVTMTRDTSTSTVYMELSSLRSEDTAVYYCARGKREGGTEYLRHWGQGTLVTVSS VL: EIVLTQSPGTLSLSPGERATLSCRASQYVSSSYLAWYQQKPGQAPRLLIYYASNRATGIPDRFSGSGSGTDFTLTISRLEPEDFAVYYCQQYHSGITFGGGTKVEIK",3800,1290
"27536 (antibody, V domains shown) VH: QVQLVQSGAEVKKPGSSVKVSCKASGGTFSNYAISWVRQAPGQGLEWMGGIIPIFGTANYAQKFQGRVTITADESTSTAYMELSSLRSEDTAVYYCARDTLYSSGAYYGYNVWGQGTMVTVSS VL: not shown",113,89
